Article PMC10997623, “Cryo-EM structures of prokaryotic ligand-gated ion channel GLIC provide insights into gating in a lipid environment” (Nature Communications, 2024)

Molecular target: the molecule itself
Experiment: cryo-EM structure; GLIC in MSP1E3D1 lipid nanodiscs (asolectin at pH 7.5; DOPE:POPS:POPC 2:1:1 at pH 7.5, 5.5, 4.0 and 2.5), 150 mM NaCl, 1 mM EDTA; seven maps at 2.6-3.4 Å; homopentamer

B1: GLIC, proton-activated prokaryotic ligand-gated ion channel from Gloeobacter violaceus (natural protein)
chain: QDMVSPPPPIADEPLTVNTGIYLIECYSLDDKAETFKVNAFLSLSWKDRRLAFDPVRSGVRVKTYEPEAIWIPEIRFVNVENARDADVVDISVSPDGTVQYLERFSARVLSPLDFRRYPFDSQTLHIYLIVRSVDTRNIVLAVDLEKVGKNDDVFLTGWDIESFTAVVKPANFALEDRLESKLDYQLRISRQYFSYIPNIILPMLFILFISWTAFWSTSYEANVTLVVSTLIAHIAFNILVETNLPKTPYMTYTGAIIFMIYLFYFVAVIEVTVQHYLKVESQPARAASITRASRIAFPVVFLLANIILAFLFFGF
notes: GLIC, Gloeobacter violaceus ligand-gated ion channel; expressed as a GLIC-MBP fusion from pET26, MBP removed with HRV-3C protease; Homopentamer; also called GLIC_(aso-pH7.5); GLIC_(pH7.5); source: E. coli C41, purified (DDM, amylose resin, SEC), reconstituted in lipid nanodiscs with MSP1E3D1
B1 was tested, and the “stoichiometry N” value was 5.
